Each block holds one binder with its values, some of them ahead of it.
Tests used:
[1] = biological target: T1, MC4R (Homo sapiens, UniProt P32245); test: cell competition binding against biotinylated alpha-MSH
[2] = biological target: T1, MC4R; test: cell saturation binding

T1 sequence (P32245 whole entry): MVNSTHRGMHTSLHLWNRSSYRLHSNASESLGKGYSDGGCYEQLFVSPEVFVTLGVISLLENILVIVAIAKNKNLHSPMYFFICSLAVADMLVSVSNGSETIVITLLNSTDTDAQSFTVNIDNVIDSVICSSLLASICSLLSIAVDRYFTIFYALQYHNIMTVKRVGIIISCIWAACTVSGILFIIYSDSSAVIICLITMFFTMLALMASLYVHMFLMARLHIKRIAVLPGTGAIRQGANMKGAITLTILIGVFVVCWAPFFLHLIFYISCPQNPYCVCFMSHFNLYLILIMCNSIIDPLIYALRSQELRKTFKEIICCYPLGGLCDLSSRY

Ki [1]: 46.3 nM
B1: LCN2 (protein)
chain: QDSTQNLIPAPSLLTVPLQPDFRSDQFRGRWYVVGLAGNAVQKKTEGSFTMYSTIYELQENNSYNVTSILVRDQDQGCRYWIRTFVPSSRAGQFTLGNMHRYPQVQSYNVQVATTDYNQFAMVFFRKTSENKQYFKITLYGRTKELSPELKERFTRFAKSLGLKDDNIIFSVPTDQCIDN

Kd [2]: 51.4 nM
B2: LCN2 (protein)
chain: B1 chain
modifications: biotinylated LCN2
